According to IntAct's records for PubMed 25910212:

B1: EF-hand domain-containing protein 1 (Homo sapiens), Q5JVL4 (parent)
chain: MVSNPVHGLPFLPGTSFKDSTKTAFHRSQTLSYRNGYAIVRRPTVGIGGDRLQFNQLSQAELDELASKAPVLTYGQPKQAPPADFIPAHVAFDKKVLKFDAYFQEDVPMSTEEQYRIRQVNIYYYLEDDSMSVIEPVVENSGILQGKLIKRQRLAKNDRGDHYHWKDLNRGINITIYGKTFRVVDCDQFTQVFLESQGIELNPPEKMALDPYTELRKQPLRKYVTPSDFDQLKQFLTFDKQVLRFYAIWDDTDSMYGECRTYIIHYYLMDDTVEIREVHERNDGRDPFPLLMNRQRVPKVLVENAKNFPQCVLEISDQEVLEWYTAKDFIVGKSLTILGRTFFIYDCDPFTRRYYKEKFGITDLPRIDVSKREPPPVKQELPPYNGFGLVEDSAQNCFALIPKAPKKDVIKMLVNDNKVLRYLAVLESPIPEDKDRRFVFSYFLATDMISIFEPPVRNSGIIGGKYLGRTKVVKPYSTVDNPVYYGPSDFFIGAVIEVFGHRFIILDTDEYVLKYMESNAAQYSPEALASIQNHVRKREAPAPEAESKQTEKDPGVQELEALIDTIQKQLKDHSCKDNIREAFQIYDKEASGYVDRDMFFKICESLNVPVDDSLVKELIRMCSHGEGKINYYNFVRAFSN
partner: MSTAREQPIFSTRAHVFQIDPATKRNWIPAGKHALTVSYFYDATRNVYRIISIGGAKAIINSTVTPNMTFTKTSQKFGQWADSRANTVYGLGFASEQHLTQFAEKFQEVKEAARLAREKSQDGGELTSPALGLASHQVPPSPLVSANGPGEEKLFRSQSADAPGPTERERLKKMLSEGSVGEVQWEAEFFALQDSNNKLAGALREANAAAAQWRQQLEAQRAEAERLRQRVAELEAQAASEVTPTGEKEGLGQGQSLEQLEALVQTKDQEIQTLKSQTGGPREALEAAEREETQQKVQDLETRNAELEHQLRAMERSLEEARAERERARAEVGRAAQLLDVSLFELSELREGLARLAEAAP
B2: Proton-coupled zinc antiporter SLC30A8 (Homo sapiens), Q8IWU4 (parent)
chain: MEFLERTYLVNDKAAKMYAFTLESVELQQKPVNKDQCPRERPEELESGGMYHCHSGSKPTEKGANEYAYAKWKLCSASAICFIFMIAEVVGGHIAGSLAVVTDAAHLLIDLTSFLLSLFSLWLSSKPPSKRLTFGWHRAEILGALLSILCIWVVTGVLVYLACERLLYPDYQIQATVMIIVSSCAVAANIVLTVVLHQRCLGHNHKEVQANASVRAAFVHALGDLFQSISVLISALIIYFKPEYKIADPICTFIFSILVLASTITILKDFSILLMEGVPKSLNYSGVKELILAVDGVLSVHSLHIWSLTMNQVILSAHVATAASRDSQVVRREIAKALSKSFTMHSLTIQMESPVDQDPDCLFCEDPCD
partner: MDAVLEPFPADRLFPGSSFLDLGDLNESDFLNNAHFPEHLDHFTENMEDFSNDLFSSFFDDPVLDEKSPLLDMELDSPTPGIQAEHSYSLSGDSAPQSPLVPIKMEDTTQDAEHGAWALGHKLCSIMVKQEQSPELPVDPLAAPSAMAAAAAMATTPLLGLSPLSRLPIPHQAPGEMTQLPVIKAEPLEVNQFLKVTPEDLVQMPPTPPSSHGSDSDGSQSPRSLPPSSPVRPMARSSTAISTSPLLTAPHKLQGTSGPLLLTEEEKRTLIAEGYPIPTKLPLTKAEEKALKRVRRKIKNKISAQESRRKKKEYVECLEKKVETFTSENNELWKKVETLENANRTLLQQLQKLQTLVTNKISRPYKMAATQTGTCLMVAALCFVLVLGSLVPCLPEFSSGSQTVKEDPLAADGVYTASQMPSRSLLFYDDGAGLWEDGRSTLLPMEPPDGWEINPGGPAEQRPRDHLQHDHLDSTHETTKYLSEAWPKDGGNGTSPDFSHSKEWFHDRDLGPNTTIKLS
B3: Claudin-19 (Homo sapiens), Q8N6F1-2 (parent)
chain: MANSGLQLLGYFLALGGWVGIIASTALPQWKQSSYAGDAIITAVGLYEGLWMSCASQSTGQVQCKLYDSLLALDGHIQSARALMVVAVLLGFVAMVLSVVGMKCTRVGDSNPIAKGRVAIAGGALFILAGLCTLTAVSWYATLVTQEFFNPSTPVNARYEFGPALFVGWASAGLAVLGGSFLCCTCPEPERPNSSPQPYRPGPSAAAREYV
partner: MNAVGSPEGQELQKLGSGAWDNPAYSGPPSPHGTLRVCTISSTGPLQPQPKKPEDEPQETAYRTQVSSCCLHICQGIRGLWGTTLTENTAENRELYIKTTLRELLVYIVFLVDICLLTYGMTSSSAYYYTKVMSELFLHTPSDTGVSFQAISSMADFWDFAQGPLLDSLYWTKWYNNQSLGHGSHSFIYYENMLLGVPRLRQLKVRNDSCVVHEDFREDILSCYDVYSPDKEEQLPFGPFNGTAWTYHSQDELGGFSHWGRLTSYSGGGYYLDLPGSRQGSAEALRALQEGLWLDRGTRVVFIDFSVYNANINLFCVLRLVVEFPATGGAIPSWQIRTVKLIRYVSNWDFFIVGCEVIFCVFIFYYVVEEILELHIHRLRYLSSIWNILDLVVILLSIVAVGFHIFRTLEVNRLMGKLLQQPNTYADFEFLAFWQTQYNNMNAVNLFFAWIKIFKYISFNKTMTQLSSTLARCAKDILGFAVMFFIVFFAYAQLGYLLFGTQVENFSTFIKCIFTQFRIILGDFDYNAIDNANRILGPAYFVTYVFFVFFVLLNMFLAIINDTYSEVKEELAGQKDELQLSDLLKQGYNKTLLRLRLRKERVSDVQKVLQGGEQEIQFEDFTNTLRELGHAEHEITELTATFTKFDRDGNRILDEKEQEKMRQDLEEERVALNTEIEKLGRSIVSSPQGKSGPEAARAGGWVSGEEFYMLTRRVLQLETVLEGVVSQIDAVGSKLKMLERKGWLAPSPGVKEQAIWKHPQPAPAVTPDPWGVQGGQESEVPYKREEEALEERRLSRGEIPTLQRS

Variants of: B1
Settings: with home3_human HOMER3, Q9NSC5

**Q.** Which “effect of a mutation on the interaction” value does the source give for A394S here?
**A.** The value was “disrupting interaction strength”.

**Q.** Which “effect of a mutation on the interaction” value does the source give for R221H here?
**A.** The value was “disrupting interaction strength”.

**Q.** How did the “effect of a mutation on the interaction” value turn out when M448T was run?
**A.** Its value is “with no effect”.

**Q.** With T508R as the variant, how does the “effect of a mutation on the interaction” value read?
**A.** The value was “with no effect”.

**Q.** Which “effect of a mutation on the interaction” value does the source give for P77T here?
**A.** The value was “disrupting interaction strength”.

Variants of: B2
Settings: with cr3l1_human CREB3L1, Q96BA8

**Q.** How did the “effect of a mutation on the interaction” value turn out when R325Q was run?
**A.** The value was “with no effect”.

**Q.** How did the “effect of a mutation on the interaction” value turn out when R325W was run?
**A.** Its value is “disrupting interaction strength”.

Variants of: B3
Settings: with pk2l1_human PKD2L1, Q9P0L9

**Q.** With R200Q as the variant, how does the “effect of a mutation on the interaction” value read?
**A.** Its value is “with no effect”.

**Q.** For G20D, which “effect of a mutation on the interaction” value is on record?
**A.** Its value is “disrupting interaction strength”.

**Q.** Which “effect of a mutation on the interaction” value does the source give for L90P here?
**A.** The value was “disrupting interaction strength”.
